{"source": "patent US20250302974A1", "about": "“LECTIN-DRUG CONJUGATES” (UNICHEM LABORATORIES LIMITED, priority 2021, published 2025)", "molecules": {"B1": {"name": "SEQ ID NO: 2: recombinant variant of the S. rolfsii lectin amino acid sequence (reported as Rec-2 in WO2010/095143) (protein)", "chain": "TYKITVRVYQTNPDAFFHPVEKTVWKYANGGTWTITDDQHVLTMGGSGTSGTLRFHADNGESFTATFGVHNYKRWCDIVTNLAADETGMVINQQYYSQKNREEARERQLSNYQVKNAKGRNFQIVYTEAEGNDLHANLIIG"}}, "assay_in_all_cases": "Cytotoxic effect by MTT assay, 48 h", "key": {"AGS Stomach": {"test_system": "AGS Stomach", "conditions": "for Percent cytotoxicity wrt control: AGS, 48 h", "procedure": "(§1) Cells were treated with Test Items at various concentrations (0.0001 μM-10 μM) for 48 h. The cells corresponding to Positive Control group were treated with Doxorubicin at a concentration ranging from 0.1 μM-100 μM. The Untreated cells were used as Control. After 48 h of incubation, the effect of Test Items on cytotoxicity of cells was determined by MTT assay, the plates were taken out and 20 μl of 5 mg/m1 of MTT 3-(4,5-dimethythiazol-2-yl)-2,5-diphenyl tetrazolium bromide solution was added to all the wells. Cells were incubated for 3 h at 37° C. The supernatant was aspirated. 150 μl of DMSO was added to each well to dissolve formazan crystals. The absorbance of each well was then read at 540 nm using Synergy HT micro plate reader.\n(§2) The % Cytotoxicity was calculated using the formula:\n(§3) Where, X=Absorbance of cells treated with Test Item; R=Absorbance of Control cells (Untreated cells maintained in growth medium only).\n(§4) Selectivity Index was calculated using the formula:\n(§5) SI=IC50 in Normal cell/IC50 in cancer cell.\n(§6) Activity scores of the Selective Index values were categorized as: • Not selective (SI value ≤1) • Moderately selective (1<SI value <5) • Selective (SI value ≥5)"}, "MDA-MB-231 Breast": {"test_system": "MDA-MB-231 Breast", "conditions": "for Percent cytotoxicity wrt control: 48 h", "procedure": "as §1, §2, §3, §4, §5, §6"}, "MG-63 Bone": {"test_system": "MG-63 Bone", "conditions": "for Percent cytotoxicity wrt control: 48 h", "procedure": "as §1, §2, §3, §4, §5, §6"}, "PA-1 Ovary": {"test_system": "PA-1 Ovary", "conditions": "for Percent cytotoxicity wrt control: 48 h", "procedure": "as §1, §2, §3, §4, §5, §6"}, "T24 Bladder": {"test_system": "T24 Bladder", "conditions": "for Percent cytotoxicity wrt control: 48 h", "procedure": "as §1, §2, §3, §4, §5, §6"}, "U251 MG Brain": {"test_system": "U251 MG Brain", "conditions": "for Percent cytotoxicity wrt control: U251 MG, 48 h", "procedure": "as §1, §2, §3, §4, §5, §6"}}}
{"molecule": "B1", "values": [{"measurement": "Percent cytotoxicity wrt control", "setting": "AGS Stomach; 0.0001 μM", "value": 7.8, "unit": "%"}, {"measurement": "Percent cytotoxicity wrt control", "setting": "AGS Stomach; 0.001 μM", "value": 8.5, "unit": "%"}, {"measurement": "Percent cytotoxicity wrt control", "setting": "AGS Stomach; 0.01 μM", "value": 15.9, "unit": "%"}, {"measurement": "Percent cytotoxicity wrt control", "setting": "AGS Stomach; 0.1 μM", "value": 37, "unit": "%"}, {"measurement": "Percent cytotoxicity wrt control", "setting": "AGS Stomach; 1 μM", "value": 49.9, "unit": "%"}, {"measurement": "Percent cytotoxicity wrt control", "setting": "AGS Stomach; 10 μM", "value": 57.2, "unit": "%"}, {"measurement": "IC50", "setting": "AGS Stomach; read-out: IC50 Values, AGS Stomach, after 48 h of treatment", "value": 1.72, "unit": "µM"}, {"measurement": "Percent cytotoxicity wrt control", "setting": "MDA-MB-231 Breast; MDA-MB-231, 0.0001 μM", "value": 13.7, "unit": "%"}, {"measurement": "Percent cytotoxicity wrt control", "setting": "MDA-MB-231 Breast; MDA-MB-231, 0.001 μM", "value": 15.1, "unit": "%"}, {"measurement": "Percent cytotoxicity wrt control", "setting": "MDA-MB-231 Breast; MDA-MB-231, 0.01 μM", "value": 16.2, "unit": "%"}, {"measurement": "Percent cytotoxicity wrt control", "setting": "MDA-MB-231 Breast; MDA-MB-231, 0.1 μM", "value": 28.1, "unit": "%"}, {"measurement": "Percent cytotoxicity wrt control", "setting": "MDA-MB-231 Breast; MDA-MB-231, 1 μM", "value": 48.5, "unit": "%"}, {"measurement": "Percent cytotoxicity wrt control", "setting": "MDA-MB-231 Breast; MDA-MB-231, 10 μM", "value": 66.4, "unit": "%"}, {"measurement": "IC50", "setting": "MDA-MB-231 Breast; read-out: IC50 Values, MDA-MB-231 Breast, after 48 h of treatment", "value": 1.35, "unit": "µM"}, {"measurement": "Percent cytotoxicity wrt control", "setting": "MG-63 Bone; MG-63, 0.0001 μM", "value": 27, "unit": "%"}, {"measurement": "Percent cytotoxicity wrt control", "setting": "MG-63 Bone; MG-63, 0.001 μM", "value": 38.7, "unit": "%"}, {"measurement": "Percent cytotoxicity wrt control", "setting": "MG-63 Bone; MG-63, 0.01 μM", "value": 50.4, "unit": "%"}, {"measurement": "Percent cytotoxicity wrt control", "setting": "MG-63 Bone; MG-63, 0.1 μM", "value": 59.1, "unit": "%"}, {"measurement": "Percent cytotoxicity wrt control", "setting": "MG-63 Bone; MG-63, 1 μM", "value": 72.3, "unit": "%"}, {"measurement": "Percent cytotoxicity wrt control", "setting": "MG-63 Bone; MG-63, 10 μM", "value": 74, "unit": "%"}, {"measurement": "IC50", "setting": "MG-63 Bone; read-out: IC50 Values, MG-63 Bone, after 48 h of treatment", "value": 0.0127, "unit": "µM"}, {"measurement": "Percent cytotoxicity wrt control", "setting": "PA-1 Ovary; PA-1, 0.0001 μM", "value": 0.9, "unit": "%"}, {"measurement": "Percent cytotoxicity wrt control", "setting": "PA-1 Ovary; PA-1, 0.001 μM", "value": "−5.6", "unit": "%"}, {"measurement": "Percent cytotoxicity wrt control", "setting": "PA-1 Ovary; PA-1, 0.01 μM", "value": 7.4, "unit": "%"}, {"measurement": "Percent cytotoxicity wrt control", "setting": "PA-1 Ovary; PA-1, 0.1 μM", "value": 4.5, "unit": "%"}, {"measurement": "Percent cytotoxicity wrt control", "setting": "PA-1 Ovary; PA-1, 1 μM", "value": 51, "unit": "%"}, {"measurement": "Percent cytotoxicity wrt control", "setting": "PA-1 Ovary; PA-1, 10 μM", "value": 72.2, "unit": "%"}, {"measurement": "IC50", "setting": "PA-1 Ovary; read-out: IC50 Values, PA-1 Ovary, after 48 h of treatment", "value": 1.54, "unit": "µM"}, {"measurement": "Percent cytotoxicity wrt control", "setting": "T24 Bladder; T24, 0.0001 μM", "value": 9.7, "unit": "%"}, {"measurement": "Percent cytotoxicity wrt control", "setting": "T24 Bladder; T24, 0.001 μM", "value": 11.1, "unit": "%"}, {"measurement": "Percent cytotoxicity wrt control", "setting": "T24 Bladder; T24, 0.01 μM", "value": 9.1, "unit": "%"}, {"measurement": "Percent cytotoxicity wrt control", "setting": "T24 Bladder; T24, 0.1 μM", "value": 10.5, "unit": "%"}, {"measurement": "Percent cytotoxicity wrt control", "setting": "T24 Bladder; T24, 1 μM", "value": 43.1, "unit": "%"}, {"measurement": "Percent cytotoxicity wrt control", "setting": "T24 Bladder; T24, 10 μM", "value": 68.7, "unit": "%"}, {"measurement": "IC50", "setting": "T24 Bladder; read-out: IC50 Values, T24 Bladder, after 48 h of treatment", "value": 2.13, "unit": "µM"}, {"measurement": "Percent cytotoxicity wrt control", "setting": "U251 MG Brain; 0.0001 μM", "value": "−9.9", "unit": "%"}, {"measurement": "Percent cytotoxicity wrt control", "setting": "U251 MG Brain; 0.001 μM", "value": "−13.2", "unit": "%"}, {"measurement": "Percent cytotoxicity wrt control", "setting": "U251 MG Brain; 0.01 μM", "value": "−14.5", "unit": "%"}, {"measurement": "Percent cytotoxicity wrt control", "setting": "U251 MG Brain; 0.1 μM", "value": "−5.3", "unit": "%"}, {"measurement": "Percent cytotoxicity wrt control", "setting": "U251 MG Brain; 1 μM", "value": 15.9, "unit": "%"}, {"measurement": "Percent cytotoxicity wrt control", "setting": "U251 MG Brain; 10 μM", "value": 62.5, "unit": "%"}, {"measurement": "IC50", "setting": "U251 MG Brain; read-out: IC50 Values, U251 MG Brain, after 48 h of treatment", "value": 5.95, "unit": "µM"}]}
